Data as given in US20230046744A1 (APO T B V, published 2023).
Values belong to the binder of their own block, whether it stands above or below them.

Tests used:
[1] = molecular target: HLA-A*2402/… complex on CHO-S cells (human); assay: flow cytometry on CHO-S transfectants
Protocol: Non transfected CHO-S cells were used as a control. For the staining 200′000 cells were suspended in 100 μl PBS containing 0.1% BSA. […] After 30 minutes incubation at 40° C. the cells were washed two times with 200 μl PBS containing 0.1% BSA. […] After the incubation, cells were washed again two times with 200 μl PBS containing 0.1% BSA.

[2] = molecular target: T1, biotinylated HLA-A*2402/… complex (human, biotinylated complex, site not stated); assay: ELISA, biotinylated complexes on streptavidin plates
T1 construct: control complex on streptavidin plates

[3] = molecular target: T2, biotinylated HLA-A*2402/… complex (human, biotinylated complex, site not stated); assay: ELISA, biotinylated complexes on streptavidin plates, dilution series of the antibody
T2 construct: recombinant complex on streptavidin plates

[4] = molecular target: T3, HLA-A*0201/… with alanine at peptide position 3, on peptide-pulsed JY cells (human); assay: flow cytometry, peptide-pulsed JY cells
T3 construct: built from the parent peptide and the stated change
Protocol: (§1) Briefly, 200′000 JY cells were incubated (pulsed) overnight under serum free conditions with 100 μg/ml peptide variants. The amino acids of the used peptides were sequentially substituted for an alanine (information regarding sequences of peptides is summarized FIG. 3B).

[5] = molecular target: T4, HLA-A*0201/… with alanine at peptide position 4, on peptide-pulsed JY cells (human); assay: flow cytometry, peptide-pulsed JY cells
T4 construct: built from the parent peptide and the stated change
Protocol: as §1

[6] = molecular target: T5, HLA-A*0201/… with alanine at peptide position 5, on peptide-pulsed JY cells (human); assay: flow cytometry, peptide-pulsed JY cells
T5 construct: built from the parent peptide and the stated change
Protocol: as §1

[7] = molecular target: T6, HLA-A*0201/… with alanine at peptide position 6, on peptide-pulsed JY cells (human); assay: flow cytometry, peptide-pulsed JY cells
T6 construct: built from the parent peptide and the stated change
Protocol: as §1

[8] = molecular target: T7, CD3 molecule expressed on the surface of T cells (human, UniProt P07766 23-207); assay: flow cytometry on PBMCs
T7 construct: whole, on cells; CD3 complex on cells; also called CD3 on PBMCs; CD3 on surface of immune effector cells
T7 sequence (P07766 23-207): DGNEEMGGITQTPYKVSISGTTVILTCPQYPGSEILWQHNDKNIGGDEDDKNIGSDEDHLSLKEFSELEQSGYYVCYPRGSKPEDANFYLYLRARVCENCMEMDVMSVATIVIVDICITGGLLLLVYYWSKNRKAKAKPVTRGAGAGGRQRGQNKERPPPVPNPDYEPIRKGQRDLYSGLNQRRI

IC50 [3]: 0.037 nM
B1: murine 9A7 IgG (antibody, V domains shown)
VH: QVQLQQPGAELVKPGASVKLSCKASGYTFTSFWMHWVKQRPGQGLEWIGEIDSSDSYTNYNQKFKGKATLTVDKSSSTAYMQLSSLTSDDSAVYYCARRVGRGYFDYWGQGTTLTVSS
VL: DIVMTQSHKFMSTSVGDRVSITCKASQDVRTAVVWYQQKPGQSPKLLIYWASTRHTGVPDRFTGSGSGTDYILTISSVQAEDLALYYCQQYDTTPWTFGGGTKVEIK
notes: mouse IgG from hybridoma; also called mouse 9A7 IgG; 9A7 murine antibody
binding result [1]: no binding (tested: dilution series starting at 222 nM) | binding result [2]: no binding (tested: dilution series starting at 100 nM)

binding result [4]: no binding | binding result [5]: no binding | binding result [6]: no binding | binding result [7]: no binding
B2: 4A6 IgG (antibody, V domains shown)
VH: EVQLVQSGAEVKKPGSSVKVSCKASGGTFSSYAISWVRQAPGQGLEWMGGIIPIFGTADYAQKFQGRATITADESTSTAYMELSSLRSEDTAVYYCARDYDFWSGYYAGDVWGQGTTVTVSS
VL: QSALTQPASVSGSPGQSITISCTGTSSDVGGYNYVSWYQQHPGKAPKLMIYDVSNRPSGVSNRFSGSKSGNTASLTISGLQAEDEADYYCSSYTSSSTRVFGGGTKLTVL
notes: IgG detected with anti-human IgG; also called 4A6 antibody

binding result [8]: no binding (tested: 50 ng/ml)
B3: 4A6_SC_FV (scFv, V domains shown)
VH: EVQLVQSGAEVKKPGSSVKVSCKASGGTFSSYAISWVRQAPGQGLEWMGGIIPIFGTADYAQKFQGRATITADESTSTAYMELSSLRSEDTAVYYCARDYDFWSGYYAGDVWGQGTTVTVSS
VL: QSALTQPASVSGSPGQSITISCTGTSSDVGGYNYVSWYQQHPGKAPKLMIYDVSNRPSGVSNRFSGSKSGNTASLTISGLQAEDEADYYCSSYTSSSTRVFGGGTKLTVL
notes: scFv of 4A6; VH and VL are those named for 4A6; also called monospecific antibody fragment
